expression_or_secretion data for eight proteins are collected here from paper PMC6497308.

This data set is described as follows: Western blot densitometry of ATP1B2 in HEK293. To be noted: glycan lost; control: normal ATP1B2.

B1: ATP1B2 (Na/K-ATPase β2 subunit): N96Q (protein)
parent chain: MVIQKEKKSCGQVVEEWKEFVWNPRTHQFMGRTGTSWAFILLFYLVFYGFLTAMFTLTMWVMLQTVSDHTPKYQDRLATPGLMIRPKTENLDVIVNVSDTESWDQHVQKLNKFLEPYNDSIQAQKNDVCRPGRYYEQPDNGVLNYPKRACQFNRTQLGNCSGIGDSTHYGYSTGQPCVFIKMNRVINFYAGANQSMNVTCAGKRDEDAENLGNFVMFPANGNIDLMYFPYYGKKFHVNYTQPLVAVKFLNVTPNVEVNVECRINAANIATDDERDKFAGRVAFKLRINKT
For B1, the expression_or_secretion result is recorded as “no change”.

B2: ATP1B2 (Na/K-ATPase β2 subunit): N193Q (protein)
parent chain: B1 parent chain
Take B2: the expression_or_secretion result is recorded as “no change”.

B3: ATP1B2 (Na/K-ATPase β2 subunit): N238Q (protein)
parent chain: B1 parent chain
As for B3, the expression_or_secretion entry is recorded as “no change”.

B4: ATP1B2 (Na/K-ATPase β2 subunit): N159Q (protein)
parent chain: B1 parent chain
On to B4, for which the expression_or_secretion result is “no change”.

B5: ATP1B2 (Na/K-ATPase β2 subunit): N197Q (protein)
parent chain: B1 parent chain
In the case of B5, the expression_or_secretion entry is on record as “no change”.

B6: ATP1B2 (Na/K-ATPase β2 subunit): N250Q (protein)
parent chain: B1 parent chain
Consider B6, for which the expression_or_secretion result is reported as “no change”.

B7: ATP1B2 (Na/K-ATPase β2 subunit): N118Q (protein)
parent chain: B1 parent chain
Regarding B7, the expression_or_secretion result is “no change”.

B8: ATP1B2 (Na/K-ATPase β2 subunit): N153Q (protein)
parent chain: B1 parent chain
In the case of B8, the expression_or_secretion result is “no change”.
